Drawing on publication PMC3726683, “Autophagy Activation Clears ELAVL1/HuR-Mediated Accumulation of SQSTM1/p62 during Proteasomal Inhibition in Human Retinal Pigment Epithelial Cells”, this text covers Kd for two molecules.

The target in series [1] is T1, ELAVL1/HuR (rHuR) (human, UniProt Q15717 1-326). Nature of the series: AlphaScreen saturation binding; RNA titrated against 1 nM HuR; R2 0.91; Methods print 0.207±0.024 without unit; 25 mM HEPES pH 7.4, 100 mM NaCl, 0.1% BSA, room temperature, 30 min then 90 min with donor beads. As to conditions: protein: recombinant; tags: C-terminal Myc-His (vector section) or MYC/DDK (assay section, TP301562); label: biotin (BITEG); single strand. (Alpha assays give light when donor and acceptor beads are brought close together.)

Series [2] addresses T1, ELAVL1/HuR (rHuR). Briefly: AlphaScreen saturation binding; RNA titrated against 1 nM HuR; R2 0.97; Methods print 0.087±0.021 without unit; 25 mM HEPES pH 7.4, 100 mM NaCl, 0.1% BSA, room temperature, 30 min then 90 min with donor beads. As to conditions: protein: recombinant; tags: C-terminal Myc-His (vector section) or MYC/DDK (assay section, TP301562); label: biotin (BITEG); single strand.

T1 sequence (Q15717 whole entry): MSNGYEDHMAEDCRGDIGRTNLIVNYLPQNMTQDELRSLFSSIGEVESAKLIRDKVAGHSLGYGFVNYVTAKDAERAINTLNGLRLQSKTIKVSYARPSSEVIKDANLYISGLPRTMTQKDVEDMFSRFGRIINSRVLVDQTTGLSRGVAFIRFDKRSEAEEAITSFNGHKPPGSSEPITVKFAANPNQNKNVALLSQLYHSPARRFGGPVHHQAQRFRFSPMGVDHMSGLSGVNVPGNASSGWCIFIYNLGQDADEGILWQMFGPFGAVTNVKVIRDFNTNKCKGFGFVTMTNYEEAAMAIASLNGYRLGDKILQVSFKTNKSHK

B1: SQSTM1/p62 ARE probe (ssRNA)
RNA: GUUUUAAAUGACUCAUAGGUCCCUGACAUUUAGUUGAUU
Regarding B1, the Kd (commonly the free concentration of one partner at which half of the binding sites on the other are occupied at equilibrium, for simple one-to-one binding) with ELAVL1/HuR (rHuR) [1] worked out at 30.9 ± 13.2 nM.

B2: TNFalpha ARE probe (ssRNA)
RNA: AUUAUUUAUUAUUUAUUUAUUAUUUA
Consider B2, for which the Kd with ELAVL1/HuR (rHuR) [2] stood at 3.83 ± 0.69 nM.
